# Data taken from the supplement of paper PMC10266784.
# B1: library; numbered along this chain (parent)
# chain: MAAAAAAAAEQQSSNGPVKKSMREKAVERRSVNKEHNSNFKAGYIPIDEDRLHKTGLRGRKGNLAICVIILLFILAVINLIITLVIWAVIRIGPNGCDSMEFHESGLLRFKQVSDMGVIHPLYKSTVGGRRNENLVITGNNQPIVFQQGTTKLSVENNKTSITSDIGMQFFDPRTQNILFSTDYETHEFHLPSGVKSLNVQKASTERITSNATSDLNIKVDGRAIVRGNEGVFIMGKTIEFHMGGNMELKAENSIILNGSVMVSTTRLPSSSSGDQLGSGDWVRYKLCMCADGTLFKVQVTSQNMGCQISDNPCGNTH
# Variants of: B1
# Assay: SGCB cell-surface expression functional score (HA stain, bin4 vs bin1, normalised to synonymous) (log10 ratio); higher = more cell-surface SGCB (functional)
# Method in brief: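 HEK293 cells stably expressing alpha-, gamma- and delta-sarcoglycan received codon-saturation libraries of HA-tagged, YFP-fused human beta-sarcoglycan by lentiviral transduction at MOI <0.1, performed in duplicate. Cells positive for YFP were sorted after 72 hours and cultured for 5–7 days, then stained on ice with Alexa Fluor 647 anti-HA and fixed. Fixed cells were sorted into four 5% intensity bins and amplicon-sequenced, and the log ratio of highest-bin to lowest-bin variant frequency, as a median over codons and transductions, gives the functional score. Per section, synonymous variants were scaled to mean 0, SD 0.5.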
row,Variant,SGCB cell-surface expression functional score (log10)
1,V226K,-1.06
2,V226L,0.56
3,V226H,-1.36
4,V226E,0.47
5,V226D,-1.82
6,V226C,0.33
7,V226G,-0.26
8,V226I,0.04
9,V226A,0.3
10,V226F,0.29
11,K219H,0.53
12,K219E,-0.03
13,K219G,-0.33
14,K219Y,-0.13
15,K219I,0.23
16,K219A,0.76
17,K219R,0.05
18,K219V,-0.18
19,K219M,0.67
20,K219S,0.32
21,K219N,-0.17
22,K219T,0.6
23,K219P,-0.21
24,K219F,0.64

row,Variant,SGCB cell-surface expression functional score (log10)
1,K219D,0.29
2,K219W,-0.31
3,K219C,0.59
4,K219Q,0.3
5,K219L,0.3
6,R223D,0.48
7,R223Q,0.48
8,R223G,0.12
9,R223N,0.66
10,R223K,0.86
11,R223H,0.2
12,R223I,0.02
13,R223S,0.18
14,R223W,0
15,R223Y,0.77
16,R223F,-0.62
17,R223C,0.4
18,R223E,0.43
19,R223L,0.34
20,R223V,-0.13
21,R223A,0.72
22,R223M,0.82
23,R223P,0.58
24,R223T,0.4

row,Variant,SGCB cell-surface expression functional score (log10)
1,N217W,-1.28
2,N217T,0.16
3,N217S,0.54
4,N217V,0.65
5,N217Y,0.59
6,V220N,0.09
7,V220R,-1.12
8,V220D,-0.38
9,V220Q,-0.31
10,V220F,-0.09
11,V220Y,-0.43
12,V220E,-0.86
13,V220M,0.77
14,V220T,0.63
15,V220K,-0.09
16,V220P,0.3
17,V220H,0.43
18,V220I,0.43
19,V220G,0.34
20,V220S,0.45
21,V220C,0.09
22,V220A,0.7
23,V220W,-1.67
24,V220L,0.84

row,Variant,SGCB cell-surface expression functional score (log10)
1,I225W,0.02
2,I225P,-1.25
3,I225T,0.51
4,I225L,0.83
5,I225S,0.63
6,I225C,0.31
7,I225D,0.7
8,I225N,0.09
9,I225E,1.24
10,I225V,0.48
11,I225Y,1.24
12,I225H,0.53
13,I225R,0.53
14,I225F,0.71
15,I225K,0.58
16,I225A,0.41
17,I225Q,0.49
18,I225G,0.01
19,I225M,0.37
20,D221K,0.13
21,D221P,0.1
22,D221Q,0.74
23,D221N,-0.22
24,D221T,0.96

row,Variant,SGCB cell-surface expression functional score (log10)
1,D221E,0.01
2,D221G,0.35
3,D221R,0.19
4,D221L,0.62
5,D221C,-0.33
6,D221A,0.18
7,D221V,0.59
8,D221M,0.53
9,D221Y,0.42
10,D221F,1
11,D221W,0.8
12,D221I,0.45
13,D221H,0.75
14,D221S,0.59
15,A224R,-1.54
16,A224F,0.35
17,A224W,-1.5
18,A224G,-0.16
19,A224D,-0.97
20,A224P,-1.81
21,A224C,0.31
22,A224V,0.53
23,A224H,-0.71
24,A224K,-2.05

row,Variant,SGCB cell-surface expression functional score (log10)
1,A224I,1
2,A224Y,-0.45
3,A224T,0.39
4,A224Q,-0.44
5,A224S,0.3
6,A224N,-0.26
7,A224M,0.59
8,A224L,1.04
9,A224E,-1.01
10,G222H,1.21
11,G222T,0.6
12,G222W,0.49
13,G222K,0.81
14,G222E,0.65
15,G222C,0.58
16,G222R,-0.06
17,G222A,0.63
18,G222D,-0.04
19,G222Y,0.21
20,G222Q,0.85
21,G222M,0.55
22,G222I,-0.41
23,G222P,-1.42
24,G222S,0.06

row,Variant,SGCB cell-surface expression functional score (log10)
1,G222V,-0.07
2,G222N,1.22
3,G222L,0.26
4,G222F,0.36
5,I218S,-1.26
6,I218V,0.46
7,I218R,-1.49
8,I218F,0.87
9,I218L,0.56
10,I218G,-1.15
11,I218H,-2.33
12,I218T,-0.49
13,I218E,-1.24
14,I218K,-1.78
15,I218D,-1.45
16,I218Q,-2.02
17,I218P,-0.63
18,I218W,-0.149
19,I218A,-0.08
20,I218C,-0.48
21,I218Y,-1.39
22,I218M,0.26
23,I218N,-1.03
